Laboratory results from article PMC7589773.

Target: AAV-DJ capsid viral protein (VP) subunit of the empty capsid (virus-like particle)
Assay: cryo-EM structure; empty AAV-DJ capsids (VLPs) in 50 mM HEPES, 25 mM MgCl2, 25 mM NaCl, pH 7.4; I1 symmetry imposed; 1.56 Å resolution

AAV-DJ capsid viral protein (VP) subunit of the empty capsid (virus-like particle)
stoichiometry N: 60
